The numbers were not newly measured in PMC10716173, which cites them from elsewhere.

The target in this series is stapled BID BH3 peptide BH3 (Homo sapiens) (UniProt P55957).
Chain of stapled BID BH3 peptide BH3 (Homo sapiens) (P55957 80-101): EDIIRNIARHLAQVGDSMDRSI

Chain of BAK (Q16611 2-211): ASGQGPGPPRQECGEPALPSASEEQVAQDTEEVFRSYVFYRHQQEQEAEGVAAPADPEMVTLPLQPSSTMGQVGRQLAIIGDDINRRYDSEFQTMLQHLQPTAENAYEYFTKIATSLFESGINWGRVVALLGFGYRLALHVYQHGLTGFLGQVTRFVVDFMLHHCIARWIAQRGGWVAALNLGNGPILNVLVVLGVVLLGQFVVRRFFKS

By Kd is commonly meant the concentration at which binding is half-saturated. In the case of BAK (from UniProt Q16611), the Kd is 1000 nM.
